Kd and percentage of clones grown on selective media data for two substances are collected here from paper PMC8392593.

Usually Kd stands for a measure of binding affinity in units of concentration.

The target of test [1] is UBE2L3 (Homo sapiens) (UniProt P68036). The experiment in a line: SPR. The settings on record: cited from earlier work.
Test [2] deals with MuRF1 in fusion with the binding domain of GAL4 (pBridge, MCS I) (rat) (UniProt Q91Z63). The experiment in a line: two-hybrid; Matchmaker Gold yeast two-hybrid; MuRF1 alone as GAL4 binding-domain fusion, preys in pGADT7; growth of diploid clones on -LTH + Aureobasidin A + 3-AT followed over 21 days.
Test [3] has the same target. The test is described as follows: two-hybrid; yeast three-hybrid; pBridge::MuRF1/MHCIIa (MuRF1 GAL4 binding-domain fusion with MHCIIa residues 1–255 co-expressed from MCSII), preys in pGADT7; growth on -LTH + Aureobasidin A + 3-AT followed over 21 days.

For the substance MuRF1 (from UniProt Q969Q1), the Kd in test [1] is 50 nM.
Regarding “UBE2E1 in pGADT7 (GAL4 activation domain fusion) (from UniProt P52482 1-193) (enzyme)”, the percentage of clones grown on selective media in test [2] and in test [3] was 80% throughout.
